# Results taken from the Immune Epitope Database (IEDB).
# What was measured:
# HLA-B*45:01 = experiment: IEDB peptide-MHC binding, purified MHC/competitive/radioactivity; filed as Kd, often an IC50 or EC50 that approximates it; ≥ and ≤ were set here for values at or beyond the usual limits of such assays
# HLA-B*18:01 [1] = experiment: as above
# HLA-B*44:02 = experiment: as above
# HLA-B*40:02 = experiment: as above
# HLA-B*44:03 = experiment: as above
# HLA-B*40:01 [2] = experiment: as above
# HLA-A*03:01 [3] = experiment: IEDB peptide-MHC binding, purified MHC/competitive/fluorescence; filed as Kd, often an IC50 or EC50 that approximates it; ≥ and ≤ were set here for values at or beyond the usual limits of such assays; details: source organism: Yersinia pestis Antiqua
# HLA-B*15:01 [4] = experiment: as above
# HLA-B*15:03 = experiment: IEDB peptide-MHC binding, purified MHC/competitive/radioactivity; filed as Kd, often an IC50 or EC50 that approximates it; ≥ and ≤ were set here for values at or beyond the usual limits of such assays; details: source organism: Vaccinia virus WR
# HLA-A*32:01 = experiment: as above; details: source organism: Vaccinia virus WR
# HLA-A*69:01 = experiment: IEDB peptide-MHC binding, purified MHC/direct/fluorescence; filed as Kd, often an IC50 or EC50 that approximates it; ≥ and ≤ were set here for values at or beyond the usual limits of such assays; details: source organism: Mycobacterium tuberculosis
# HLA-A*02:12 = experiment: as above
# HLA-A*02:03 = experiment: as above
# HLA-A*02:11 = experiment: as above
# HLA-A*24:03 = experiment: as above; details: source organism: Influenza A virus (A/Duck/Shantou/1881/00(H9N2))
# HLA-A*02:19 = experiment: as above; details: source organism: Influenza A virus(A/swine/Henan/8/2004(H9N2))
# HLA-B*07:02 = experiment: as above; details: source organism: Influenza A virus (A/Duck/Shantou/1881/00(H9N2))
# HLA-B*58:01 = experiment: as above
# HLA-A*01:01 = experiment: as above; details: source organism: Influenza A virus (A/Duck/Shantou/1881/00(H9N2))
# HLA-A*03:01 [5] = experiment: as above
# HLA-A*11:01 = experiment: as above; details: source organism: Influenza A virus (A/Duck/Shantou/1881/00(H9N2))
# HLA-B*15:01 [6] = experiment: as above; details: source organism: Influenza A virus (A/Duck/Shantou/1881/00(H9N2))
# HLA-B*40:01 [7] = experiment: as above; details: source organism: Influenza A virus (A/Duck/Shantou/1881/00(H9N2))
# HLA-A*31:01 = experiment: as above; details: source organism: Influenza A virus (A/Duck/Shantou/1881/00(H9N2))
# HLA-A*02:01 = experiment: as above; details: source organism: Influenza A virus (A/Duck/Shantou/1881/00(H9N2))
# HLA-B*27:05 = experiment: as above; details: source organism: Influenza A virus (A/Duck/Shantou/1881/00(H9N2))
# HLA-B*39:01 = experiment: IEDB peptide-MHC binding, purified MHC/competitive/fluorescence; filed as Kd, often an IC50 or EC50 that approximates it; ≥ and ≤ were set here for values at or beyond the usual limits of such assays; details: source organism: Choclo virus
# HLA-B*57:01 = experiment: as above; details: source organism: Choclo virus
# HLA-B*51:01 = experiment: as above; details: source organism: Choclo virus
# HLA-B*15:17 = experiment: as above; details: source organism: Choclo virus
# HLA-B*18:01 [8] = experiment: as above; details: source organism: Choclo virus
# HLA-B*46:01 = experiment: as above; details: source organism: Choclo virus
# HLA-B*27:03 = experiment: as above; details: source organism: Choclo virus
# HLA-A*26:01 = experiment: as above; details: source organism: Choclo virus
# [9] = source organism: Mammarenavirus machupoense
# [10] = source organism: Mammarenavirus choriomeningitidis
# [11] = source organism: Lymphocytic choriomeningitis virus (strain Armstrong)
# [12] = source organism: Mammarenavirus lassaense
# [13] = source organism: Mammarenavirus brazilense
# [14] = source organism: SARS coronavirus Tor2
# [15] = source organism: Mycobacterium tuberculosis str. Haarlem
# [16] = source organism: Mammarenavirus juninense
# [17] = source organism: Influenza A virus (A/Duck/Shantou/1881/00(H9N2))
# [18] = source organism: Influenza A virus(A/swine/Henan/8/2004(H9N2))
sequence,measurement,setting,value
ADMSKLLNL,Kd,HLA-B*45:01; [9],≥ 77700 nM
same,Kd,HLA-B*18:01 [1]; [9],≥ 77500 nM
same,Kd,HLA-B*44:02; [9],5440 nM
same,Kd,HLA-B*40:02; [9],339 nM
same,Kd,HLA-B*44:03; [9],≥ 51400 nM
same,Kd,HLA-B*40:01 [2]; [9],6250 nM
ADYLSCSHF,Kd,HLA-B*45:01; [10],17700 nM
same,Kd,HLA-B*18:01 [1]; [10],≥ 77500 nM
same,Kd,HLA-B*44:02; [10],319 nM
same,Kd,HLA-B*40:02; [10],254 nM
same,Kd,HLA-B*44:03; [10],2740 nM
same,Kd,HLA-B*40:01 [2]; [10],≥ 47000 nM
AEALGPFQS,Kd,HLA-B*45:01; [11],132 nM
same,Kd,HLA-B*18:01 [1]; [11],≥ 77500 nM
same,Kd,HLA-B*44:02; [11],1320 nM
same,Kd,HLA-B*40:02; [11],4960 nM
same,Kd,HLA-B*44:03; [11],6970 nM
same,Kd,HLA-B*40:01 [2]; [11],≥ 32100 nM
AMLDRILHH,Kd,HLA-A*03:01 [3],9.5 nM
same,Kd,HLA-B*15:01 [4]; source organism: Yersinia pestis Antiqua,6160 nM
FDAAASGGL,Kd,HLA-B*45:01; [12],≥ 32200 nM
same,Kd,HLA-B*18:01 [1]; [12],≥ 65200 nM
same,Kd,HLA-B*44:02; [12],≥ 77900 nM
same,Kd,HLA-B*40:02; [12],3020 nM
same,Kd,HLA-B*44:03; [12],≥ 78100 nM
same,Kd,HLA-B*40:01 [2]; [12],≥ 28500 nM
FEEHLAPFMS,Kd,HLA-B*45:01; [13],8780 nM
same,Kd,HLA-B*18:01 [1]; [13],3380 nM
same,Kd,HLA-B*44:02; [13],≥ 47400 nM
same,Kd,HLA-B*40:02; [13],2570 nM
same,Kd,HLA-B*44:03; [13],≥ 70100 nM
same,Kd,HLA-B*40:01 [2]; [13],2360 nM
FEKMVSLLSV,Kd,HLA-B*45:01; [14],784 nM
same,Kd,HLA-B*18:01 [1]; [14],145 nM
same,Kd,HLA-B*44:02; [14],3280 nM
same,Kd,HLA-B*40:02; [14],23.7 nM
same,Kd,HLA-B*44:03; [14],6180 nM
same,Kd,HLA-B*40:01 [2]; [14],25.2 nM
FELTSMKYFV,Kd,HLA-B*45:01; [14],7780 nM
same,Kd,HLA-B*18:01 [1]; [14],≥ 37900 nM
same,Kd,HLA-B*44:02; [14],7160 nM
same,Kd,HLA-B*40:02; [14],24.2 nM
same,Kd,HLA-B*44:03; [14],4470 nM
same,Kd,HLA-B*40:01 [2]; [14],2140 nM
FESYVRPFVA,Kd,HLA-B*45:01; [12],151 nM
same,Kd,HLA-B*18:01 [1]; [12],982 nM
same,Kd,HLA-B*44:02; [12],≥ 70200 nM
same,Kd,HLA-B*40:02; [12],19.9 nM
same,Kd,HLA-B*44:03; [12],≥ 32000 nM
same,Kd,HLA-B*40:01 [2]; [12],5420 nM
GDVELLGTT,Kd,HLA-B*45:01; [12],16600 nM
same,Kd,HLA-B*18:01 [1]; [12],≥ 77500 nM
same,Kd,HLA-B*44:02; [12],≥ 41800 nM
same,Kd,HLA-B*40:02; [12],5920 nM
same,Kd,HLA-B*44:03; [12],≥ 52100 nM
same,Kd,HLA-B*40:01 [2]; [12],≥ 33700 nM
GERSRCYSL,Kd,HLA-B*45:01; [13],≥ 77700 nM
same,Kd,HLA-B*18:01 [1]; [13],≥ 77500 nM
same,Kd,HLA-B*44:02; [13],≥ 77900 nM
same,Kd,HLA-B*40:02; [13],51.2 nM
same,Kd,HLA-B*44:03; [13],≥ 78100 nM
same,Kd,HLA-B*40:01 [2]; [13],3380 nM
IMVSEHFSL,Kd,HLA-B*15:03,5.51 nM
KMAADRGAF,Kd,HLA-B*15:03,2.5 nM
KPNSFTFSF,Kd,HLA-B*15:03,254 nM
same,Kd,HLA-A*32:01,13900 nM
LLYDGSFAV,Kd,HLA-A*69:01,4.3 nM
same,Kd,HLA-A*02:12; [15],2 nM
same,Kd,HLA-A*02:03; [15],≤ 1 nM
same,Kd,HLA-A*02:11; [15],≤ 1 nM
QELYSPLFLI,Kd,HLA-B*45:01; [14],45.6 nM
same,Kd,HLA-B*18:01 [1]; [14],4910 nM
same,Kd,HLA-B*44:02; [14],7.01 nM
same,Kd,HLA-B*40:02; [14],10.7 nM
same,Kd,HLA-B*44:03; [14],7.36 nM
same,Kd,HLA-B*40:01 [2]; [14],690 nM
REGVFVFNGT,Kd,HLA-B*45:01; [14],222 nM
same,Kd,HLA-B*18:01 [1]; [14],≥ 70500 nM
same,Kd,HLA-B*44:02; [14],1600 nM
same,Kd,HLA-B*40:02; [14],274 nM
same,Kd,HLA-B*44:03; [14],306 nM
same,Kd,HLA-B*40:01 [2]; [14],677 nM
RGSWATSSF,Kd,HLA-B*15:03,11.1 nM
SEAPNAKEEI,Kd,HLA-B*45:01; [14],319 nM
same,Kd,HLA-B*18:01 [1]; [14],≥ 27200 nM
same,Kd,HLA-B*44:02; [14],105 nM
same,Kd,HLA-B*40:02; [14],3350 nM
same,Kd,HLA-B*44:03; [14],145 nM
same,Kd,HLA-B*40:01 [2]; [14],1180 nM
SEAQMSIQL,Kd,HLA-B*45:01; [12],542 nM
same,Kd,HLA-B*18:01 [1]; [12],1100 nM
same,Kd,HLA-B*44:02; [12],161 nM
same,Kd,HLA-B*40:02; [12],15.3 nM
same,Kd,HLA-B*44:03; [12],99.3 nM
same,Kd,HLA-B*40:01 [2]; [12],11600 nM
SEILRTLGF,Kd,HLA-B*45:01; [16],7590 nM
same,Kd,HLA-B*18:01 [1]; [16],115 nM
same,Kd,HLA-B*44:02; [16],18.7 nM
same,Kd,HLA-B*40:02; [16],56.1 nM
same,Kd,HLA-B*44:03; [16],37.3 nM
same,Kd,HLA-B*40:01 [2]; [16],4180 nM
SGNRGSTSF,Kd,HLA-B*15:03,25.2 nM
SLPPNFSSL,Kd,HLA-A*24:03,7.5 nM
same,Kd,HLA-A*02:19,124 nM
same,Kd,HLA-B*07:02,1650 nM
same,Kd,HLA-B*58:01; [17],≥ 20000 nM
same,Kd,HLA-A*01:01,≥ 20000 nM
same,Kd,HLA-A*03:01 [5]; [17],≥ 20000 nM
same,Kd,HLA-A*11:01,≥ 20000 nM
same,Kd,HLA-B*15:01 [6],115 nM
same,Kd,HLA-B*40:01 [7],≥ 20000 nM
same,Kd,HLA-A*02:12; [18],5 nM
same,Kd,HLA-A*31:01,≥ 20000 nM
same,Kd,HLA-A*02:03; [18],3 nM
same,Kd,HLA-A*02:11; [18],24 nM
same,Kd,HLA-A*02:01,9.3 nM
same,Kd,HLA-B*27:05,≥ 20000 nM
SQQNSDSIF,Kd,HLA-B*15:03,1.87 nM
TKFTDFQDF,Kd,HLA-B*15:03,2.22 nM
TKTLDISSF,Kd,HLA-B*15:03,54.5 nM
VEAVMYMGT,Kd,HLA-B*45:01; [14],616 nM
same,Kd,HLA-B*18:01 [1]; [14],2470 nM
same,Kd,HLA-B*44:02; [14],≥ 21900 nM
same,Kd,HLA-B*40:02; [14],1320 nM
same,Kd,HLA-B*44:03; [14],6510 nM
same,Kd,HLA-B*40:01 [2]; [14],≥ 31300 nM
VMGVIGFGF,Kd,HLA-B*58:01; source organism: Orthohantavirus andesense,2190 nM
same,Kd,HLA-A*03:01 [5]; source organism: Choclo virus,≥ 20000 nM
same,Kd,HLA-A*02:12; source organism: Choclo virus,≥ 20000 nM
same,Kd,HLA-B*39:01,≥ 20000 nM
same,Kd,HLA-B*57:01,≥ 20000 nM
same,Kd,HLA-B*51:01,≥ 20000 nM
same,Kd,HLA-B*15:17,≥ 20000 nM
same,Kd,HLA-B*18:01 [8],≥ 20000 nM
same,Kd,HLA-B*15:01 [4]; source organism: Choclo virus,≥ 20000 nM
same,Kd,HLA-B*46:01,≥ 20000 nM
same,Kd,HLA-B*27:03,≥ 20000 nM
same,Kd,HLA-A*26:01,≥ 20000 nM
YDFNKLTAL,Kd,HLA-B*45:01; [12],≥ 77700 nM
same,Kd,HLA-B*18:01 [1]; [12],6780 nM
same,Kd,HLA-B*44:02; [12],2270 nM
same,Kd,HLA-B*40:02; [12],19.8 nM
same,Kd,HLA-B*44:03; [12],9170 nM
same,Kd,HLA-B*40:01 [2]; [12],5340 nM
YKVFTDISM,Kd,HLA-B*15:03,2.18 nM
